According to US20230212549A1 (3B PHARMACEUTICALS, published 2023):
“And” between values parts separate entries of the source, which are not always exact repeats. Equal entries are not always repeated. Numbered stars: 1 amine (or outer) side, 2 acyl side, 3 side chain; on linkers, the order of the positions; unused ones are H or OH. Bridge positions count the residues as written; N and C are the ends. Square brackets hold non-standard residues; d marks the D form. Primed or numbered codes have the meaning given here. Side chains are listed from the residue outwards. * marks the point of attachment. Bip = N[C@@H](Cc1ccc(-c2ccccc2)cc1)C(=O)O; Met(O2) = CS(=O)(=O)CC[C@H](N)C(=O)O; mXylylene = c1cc(C[*:1])cc(C[*:2])c1; NMeE = CN[C@@H](CCC(=O)O)C(=O)O; DOTA′ = not defined here; Nphe = O=C(O)CNCc1ccccc1; Apr = not defined here; Hexanoyl = CCCCCC(=O)*; AEEA = NCCOCCOCC(=O)O

Biological target: Recombinant human FAP (R&D systems, #3715-SE) (human, UniProt Q12884 26-760)
Sequence (Q12884 26-760 limits assumed): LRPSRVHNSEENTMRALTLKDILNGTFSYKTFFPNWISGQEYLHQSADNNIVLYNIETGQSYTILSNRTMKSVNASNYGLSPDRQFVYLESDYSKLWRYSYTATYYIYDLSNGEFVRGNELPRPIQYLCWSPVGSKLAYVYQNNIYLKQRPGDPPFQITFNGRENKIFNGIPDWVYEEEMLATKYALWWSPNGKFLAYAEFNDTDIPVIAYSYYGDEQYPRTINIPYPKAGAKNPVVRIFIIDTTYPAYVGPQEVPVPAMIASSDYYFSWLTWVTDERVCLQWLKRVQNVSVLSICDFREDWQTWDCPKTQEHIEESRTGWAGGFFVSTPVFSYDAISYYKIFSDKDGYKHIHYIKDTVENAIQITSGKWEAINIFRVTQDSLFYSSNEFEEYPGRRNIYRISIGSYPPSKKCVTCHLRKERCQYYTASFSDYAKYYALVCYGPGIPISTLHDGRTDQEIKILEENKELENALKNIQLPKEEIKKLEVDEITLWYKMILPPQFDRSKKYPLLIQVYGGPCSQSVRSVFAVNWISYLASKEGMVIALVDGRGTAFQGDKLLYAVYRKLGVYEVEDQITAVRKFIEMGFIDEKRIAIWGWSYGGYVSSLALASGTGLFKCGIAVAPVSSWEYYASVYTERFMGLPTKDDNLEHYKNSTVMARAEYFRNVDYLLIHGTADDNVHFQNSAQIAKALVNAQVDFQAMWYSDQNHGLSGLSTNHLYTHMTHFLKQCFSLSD
Experiment: cell-based or functional assay

B1: Hex-[Cys(3MeBn)-Pro-Pro-Thr-Ala-Phe-Cys]-NH2 (peptide)
peptide: Hexanoyl-CPPTAFC-NH2
modifications: linker 1-7 via mXylylene
SMILES: CCCCCC(=O)N[C@H]1CSCc2cccc(c2)CSC[C@@H](C(N)=O)NC(=O)[C@H](Cc2ccccc2)NC(=O)[C@H](C)NC(=O)[C@H]([C@@H](C)O)NC(=O)[C@@H]2CCCN2C(=O)[C@@H]2CCCN2C1=O
pIC50 Category (Activity): ≤ 6 pIC50

B2: Hex-[Cys(3MeBn)-Pro-Pro-Ala-Glu-Phe-Cys]-NH2 (peptide)
peptide: Hexanoyl-CPPAEFC-NH2
modifications: linker 1-7 via mXylylene
SMILES: CCCCCC(=O)N[C@H]1CSCc2cccc(c2)CSC[C@@H](C(N)=O)NC(=O)[C@H](Cc2ccccc2)NC(=O)[C@H](CCC(=O)O)NC(=O)[C@H](C)NC(=O)[C@@H]2CCCN2C(=O)[C@@H]2CCCN2C1=O
pIC50 Category (Activity): ≤ 6 pIC50

B3: Hex-[Cys(3MeBn)-Pro-Pro-Thr-Glu-Nphe-Cys]-NH2 (peptide)
peptide: Hexanoyl-CPPTE[Nphe]C-NH2
modifications: linker 1-7 via mXylylene
SMILES: CCCCCC(=O)N[C@H]1CSCc2cccc(c2)CSC[C@@H](C(N)=O)NC(=O)CN(Cc2ccccc2)C(=O)[C@H](CCC(=O)O)NC(=O)[C@H]([C@@H](C)O)NC(=O)[C@@H]2CCCN2C(=O)[C@@H]2CCCN2C1=O
pIC50 Category (Activity): ≤ 6 pIC50

B4: Hex-[Cys(3MeBn)-Pro-Pro-Thr-Glu(NH-Apr-O2Oc-DOTA′)-Phe-Cys]-Asp-NH2 (peptide)
peptide: Hexanoyl-CPPTE([Apr-AEEA-DOTA′])FCD-NH2
modifications: linker 1-7 via mXylylene; reading uncertain; also: printed as Hex-[Cys(3MeBn)-Pro-Pro-Thr-Glu(NH-Apr-O2Oc-DOTA′)-Phe-Cys]-Asp-NH2
pIC50 Category (Activity): 6.1 pIC50 and 7 pIC50

B5: Hex-[Cys(3MeBn)-Pro-Pro-Thr-Moo-Phe-Cys]-NH2 (peptide)
peptide: Hexanoyl-CPPT[Met(O2)]FC-NH2
modifications: linker 1-7 via mXylylene
SMILES: CCCCCC(=O)N[C@H]1CSCc2cccc(c2)CSC[C@@H](C(N)=O)NC(=O)[C@H](Cc2ccccc2)NC(=O)[C@H](CCS(C)(=O)=O)NC(=O)[C@H]([C@@H](C)O)NC(=O)[C@@H]2CCCN2C(=O)[C@@H]2CCCN2C1=O
pIC50 Category (Activity): ≤ 6 pIC50

B6: Hex-[Cys(3MeBn)-Ala-Pro-Thr-Glu-Phe-Cys]-NH2 (peptide)
peptide: Hexanoyl-CAPTEFC-NH2
modifications: linker 1-7 via mXylylene
SMILES: CCCCCC(=O)N[C@H]1CSCc2cccc(c2)CSC[C@@H](C(N)=O)NC(=O)[C@H](Cc2ccccc2)NC(=O)[C@H](CCC(=O)O)NC(=O)[C@H]([C@@H](C)O)NC(=O)[C@@H]2CCCN2C(=O)[C@H](C)NC1=O
pIC50 Category (Activity): 6.1 pIC50 and 7 pIC50

B7: Hex-[Cys(3MeBn)-Pro-Pro-Thr-Glu-Ala-Cys]-NH2 (peptide)
peptide: Hexanoyl-CPPTEAC-NH2
modifications: linker 1-7 via mXylylene
SMILES: CCCCCC(=O)N[C@H]1CSCc2cccc(c2)CSC[C@@H](C(N)=O)NC(=O)[C@H](C)NC(=O)[C@H](CCC(=O)O)NC(=O)[C@H]([C@@H](C)O)NC(=O)[C@@H]2CCCN2C(=O)[C@@H]2CCCN2C1=O
pIC50 Category (Activity): 6.1 pIC50 and 7 pIC50

B8: Hex-[Cys(3MeBn)-Pro-Pro-Thr-Nme-Phe-Cys]-NH2 (peptide)
peptide: Hexanoyl-CPPT[NMeE]FC-NH2
modifications: linker 1-7 via mXylylene
SMILES: CCCCCC(=O)N[C@H]1CSCc2cccc(c2)CSC[C@@H](C(N)=O)NC(=O)[C@H](Cc2ccccc2)NC(=O)[C@H](CCC(=O)O)N(C)C(=O)[C@H]([C@@H](C)O)NC(=O)[C@@H]2CCCN2C(=O)[C@@H]2CCCN2C1=O
pIC50 Category (Activity): ≤ 6 pIC50

B9: Hex-[Cys(3MeBn)-Pro-Pro-Thr-Glu-Bip-Cys]-NH2 (peptide)
peptide: Hexanoyl-CPPTE[Bip]C-NH2
modifications: linker 1-7 via mXylylene
SMILES: CCCCCC(=O)N[C@H]1CSCc2cccc(c2)CSC[C@@H](C(N)=O)NC(=O)[C@H](Cc2ccc(-c3ccccc3)cc2)NC(=O)[C@H](CCC(=O)O)NC(=O)[C@H]([C@@H](C)O)NC(=O)[C@@H]2CCCN2C(=O)[C@@H]2CCCN2C1=O
pIC50 Category (Activity): ≤ 6 pIC50
